Reference: the nanobody polyreactivity screen of Harvey et al. (2022)

Test: yeast display, Sf9 membrane polyspecificity reagent, FACS + sequencing; frameworks hold sequencing errors
How it was run: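 Polyreactivity labels are assigned by the sorting gate from which each nanobody was recovered. The gates were low and high (top ~1%), set on anti-HA fluorescence for expression and streptavidin fluorescence for reagent binding. Before sorting, galactose-induced (36–48 hours) yeast display cells were stained for 1 hour at 4 °C with 10% biotinylated, detergent-solubilized Sf9 membrane reagent.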
With “QVQLVESGGGLVQAGGSLRLSCAASGRIFGVYVMGWYRQAPGKETELVAAISWSGSHTYYADSVKGRFTISRDNAKNTVYLQMNSLKPEDTAVYYCNADSYPDYTGPGLDWYDYWGQGTQVTVSS” the “polyreactivity (PSR sort gate)” value was “low polyreactivity”. In the case of “QVQLGESGGGLVQAGGSLRLSCAASGSIFKWYAMGWYRQAPGKERELVAAISASGGSTYYADSVKGRFTISRDNAKNSVYLQMNSLKPEDTAVYYCNTDHYYSSRHYDYWGQGTQVTVSS”, the “polyreactivity (PSR sort gate)” value was “low polyreactivity”. In the case of “QVQLVESGGGLVQAGGSLRLSCAASGSIFYTNAMGWYRPAPGKERELVAAIRTGGSTNYADSVKGRFTISRDNAKNTVYLQMNSLKPEDTAVYYCAAAYGYGHKKYGYWGQATQVTVSS”, the “polyreactivity (PSR sort gate)” value was “low polyreactivity”. With “QVELVESGGGLVQAGGSLRLSCAASGFIFTYYAMGWYSQAPWKERELVATISSGGGSTYYADSVKGRFTISRDNAKNTVYLQMYSLNPEDTAVYYCAASRRITGIRYINRYAYWGQGTQVTVSS” the “polyreactivity (PSR sort gate)” value was “high polyreactivity”. In the case of “QVQLVESGGGLVQAGGSLRLSCAASGRIFLVYAMGWYRQAPGKERELVAAISWRGGRTYYADSVKGRFTISRDNAKNTVYLQMNILKPEDTAVYYCAAASKYSQFEYDYWGHGTQVTVSS”, the “polyreactivity (PSR sort gate)” value was “high polyreactivity”. With “QVQLVESGGGLVQAGGSLRLSCAASGSTFRWYAMGWYRQAPGKERDLVAAISARGTSTYYADSVKGRFTISRDNAKNTVYLQMNSLKPEDTAVSYCAAPQQQSWTYDGRYGYWGQGTQVTVSS” the “polyreactivity (PSR sort gate)” value was “high polyreactivity”. With “QDQLVESGGGLVQAGGSLRLSCAASGYIFITKAMGLNRQAPGKERELVAAINSGGSTYYADSVKGRFTISRDNAKNTVYLQMKSLKPEDTAVYYCAAEYWVYYWHYYDYWGQGTQVTVSS” the “polyreactivity (PSR sort gate)” value was “high polyreactivity”. With “QVHLVESVGGLFQAGGSLRLSCDASGRTFPINAMGWYRQAPGKERELVARISRTSGSTYYADSVKGRFTISRDNAKNTVYLQMNSLNPEDTAVYYCAAVRDKYFRARYGYWGQGTQVTVSS” the “polyreactivity (PSR sort gate)” value was “high polyreactivity”. In the case of “QVQLVESGGGLVQAGGSLRLSCAASGNILPSNAMGRYREAPGKEWELVAAITWSVGRTYYADSVKGRFTISRDNAKYTVYLQMNSLKPEDTAVYYCAADDYWDDVYYYVTGSTGYDYWGQGTQVTVSS”, the “polyreactivity (PSR sort gate)” value was “low polyreactivity”. For “QVQLVESGGGLVQAGGSLRLSCAASGRIFGVYAMGWYRQAPGKERELVADISWSGSGTYADSVKGRFTISRDNAKNTVYLQMNSLKPEDTAVYYCNVDPAQIHSGYVGYDYWGQGTQVTVSS”, the “polyreactivity (PSR sort gate)” value was “low polyreactivity”. With “QVQLVESGGGLVQAGGSLRLSCAASGSLFTSYAMGWYRQAPGKERELVAAIRESGGRTYYADSVKGRFTISRDNAKNTVYLQMNSLKPEDTAVYYCAADSRVGFGRLYGYWGQGTQVTVSS” the “polyreactivity (PSR sort gate)” value was “high polyreactivity”. In the case of “QVQLVESGGGLVQAGGSLRLSCAASGITFPGYAMGWYRQAPGKERELVAAIDWSGDGTYYADSVKGRFTISRDNAKNTVYLQMNSLKPEDTAVYYCAKDNYPNHSTVLAVIYDYWGQGTQVTVSS”, the “polyreactivity (PSR sort gate)” value was “low polyreactivity”. With “QVQLVESGGGLVQAGGSLRLSCAASGIIFGYYAMGWYRQAPGKERELVAGISSSDSTYYADSVKGRFTISRDNAKNTVYLQMNSLKPEDTAVYYCATPVYRSTYEYDYWGQGTQVTVSS” the “polyreactivity (PSR sort gate)” value was “low polyreactivity”. With “QVQLVESGGGLVQAGGSLRLSCAASGSTSYYYTMGWYRQAPGKERELVASISSSGTSTYYADSVKGRFTISRDNPKNTVYLQMNSLKPEDTAVYYCAATADNNTPSGYDYWGQGTQVTVSS” the “polyreactivity (PSR sort gate)” value was “high polyreactivity”. For “QVQLVESGGGLVQAGGSLRLSCAASGYIFDIYAMGWYRQAPGKERELVAVITRSGGGTYYADSVKGRFTISRDNAKNTVYFQMNSLKPEDTAVYYCAAESYVYGGSDYVYWGQGTEVTVSS”, the “polyreactivity (PSR sort gate)” value was “low polyreactivity”. With “QVHLVESGGGLVQAGGSLRLSCAASGSIFYIYAMGWYRQAPGKERELVAGITSGGGTYYADSVKGRFTISRDNAKNTVYLQMNSLKPEDTAVYYCAADYLYDYDYWGQGTQVTVSS” the “polyreactivity (PSR sort gate)” value was “high polyreactivity”. In the case of “QVQLQESGVRLVQAGGSLRLSCAASGPISRRSTMGWYRQAPGKERELVTAITRGTNTNYADSVKGRFTISRDNAKNTEYLQMNSLKPEDTAVYYCAAYGVLKPSRGDAVFHRYWGQGTQVTVSS”, the “polyreactivity (PSR sort gate)” value was “low polyreactivity”. For “QVQLVESGGGLVQAGGSLRLSCAASGRIFYPYAMGWYRQAPGKERELVAAITGRGGSTYYADSVKGRFTISRDNAKNTVYLQMNSLKPEDTAVYYCATVQSGRVRTYDYWGQGTQVTVSS”, the “polyreactivity (PSR sort gate)” value was “high polyreactivity”. With “QVQLVESVGGLVQAGGSLLLSCAASGFTFGPYAMGWYRQAPGKERELVAAISRSGGSTYYSDSVKGRFTISRYNAKNTVYLQLNSLKPEDTAVYYCAACSAYLWGQGTQVTVSS” the “polyreactivity (PSR sort gate)” value was “low polyreactivity”. With “QVQLVESGGGLVQAGGSLRLSCAASGSIFLRNAMGWYRQAPGKERELVAAITWDSGDTYYADSVQGRFTISRDNAKNTVYLQMNSLKPEDTAVYYCNTLGLSSDWGQGTQVTVSS” the “polyreactivity (PSR sort gate)” value was “low polyreactivity”. With “QVQLVESGGGLVQAGGSLRLSCAASGSIFGAYVMGWYRQAPGKERELVAAITRRGGSTYYADSVKGRFTISRDNAKNTVYLQMNSLKPEDTAVYYCAARRGAGDGYWGQGTQVTVSS” the “polyreactivity (PSR sort gate)” value was “high polyreactivity”. For “QVQLVESGGGLVQAGGSLRLTCAASGRIIKLYAMGWYRQAPGKETEFVAAITWSGGRTYYADSVKGRFTISRDNAKNTVYLQMNSLTPEDTAVYSCAAYDTYDWYDYWGQGTQVTVSS”, the “polyreactivity (PSR sort gate)” value was “high polyreactivity”. In the case of “QVQLVESGGGLVQAGGSLRLRCASSGRNFVPYAMGGDRQAPGTEREFVAAISRSGGSTHYADSVKGRFTISRDNAKNTVYLQMNSLKPEDTAVYYCAADYDLWLWSGYYWGQGTQVTVSS”, the “polyreactivity (PSR sort gate)” value was “high polyreactivity”. In the case of “QVQLVESGGGLVQAGGSLRLSCAASGSIFQYYVMGWYRQAPGKERELVAAISQSGGRTYYADSVKGRFTISRDNAKNTFYLQMNSLKPEDTAVYYCAAYSRNAEYDYWGQGTQVTVSS”, the “polyreactivity (PSR sort gate)” value was “high polyreactivity”. With “QVQLVESGGGLVQAGGSLRLSCAASGGIFRYSAMGWYRQAPGKERELVATDGDTYYADSVKGRFTISRDNAKNTVYLQLNSLKPEDTAVYYCAAEPVRYYAMEYWGQGTQVTVSS” the “polyreactivity (PSR sort gate)” value was “low polyreactivity”. For “QVQLQESGGGLVQAGGSQRLSSAASGYNFYFQYMGWYRQAPGKEREFVAAISDGANTNNADSVKGRFTISRDNAKNTEYLQMNSLKPEDSAVYYCAVYADDNYYYIYWGQGTQVTVSS”, the “polyreactivity (PSR sort gate)” value was “low polyreactivity”. With “QVQLVESGGGLVQAGGSLRLSCAASGSISVPNAMGWYRQAPGKERELVAGITSGDSTHYADSVKGRFSISRDNAKNTVYIQMISLKPEDTAVYYCAAKVPEPPSLDESDYWGQGTQVTVSA” the “polyreactivity (PSR sort gate)” value was “low polyreactivity”. With “QVQLVESGGGLVQAGGRLRLSCAASGRTFSNYAKGWYRQAPGKEREFVAGIRYNGGSTYYADSVKGRFTISRDNAKNTVYLQMKSLKPEDTAVYYCAARYSRSMDYWGQGTQVTVSS” the “polyreactivity (PSR sort gate)” value was “high polyreactivity”. For “QVQLVESGGGLVQAGGSLRLSCAASGFTFGYNAMGWYRHAPGKERELVAAISYRDGSTYYADSVKGRFTISRDNAKNTVYLQMNSLKPEDTAVYYCAAEVWYPGWGYDYWGQGTQVTVSS”, the “polyreactivity (PSR sort gate)” value was “high polyreactivity”. For “QVQLVESGGGLVQAGGSLRLSCAASGLIFANNAMGWYRQAPGKERELVAVISRGGRTYYADSVKGRFTISRDNAKNTVYLQMNSLKPEDTAVYYCAKPVLVGLGSRYDYWGQGTQVTVSS”, the “polyreactivity (PSR sort gate)” value was “high polyreactivity”. In the case of “QVQLVESGGCLVQAGGTLRLSCASSGNTFVDYGMGWYRQAPGKERELVAAITRGGTTKYADSVKGRFTISRVNAKNKVYLQMNSLKPEDTAVYYCAAEWPVNFDYWGKGTQVTVSS”, the “polyreactivity (PSR sort gate)” value was “low polyreactivity”. In the case of “QVQLVESGGGLVQAGGSLRLSCAASGRTFYSYAMGWYRQAPGKERELVAAISAGGSTYYADSVKGRFTISRDNAKNTVYLQMNSLKPEDTAVYYCAATYSYYYARYHYWGQGTQVTVSS”, the “polyreactivity (PSR sort gate)” value was “high polyreactivity”. For “QVQLVESGGGLVQAGGSLRLSCAASGSIFGYNAMVWYRQAPGKESELVAAIRYSGGRTYYADSVKGRFTISRDNAKNSVYLQMNSLKPEDTAVYYCAAPIKFYRYGYTRYDYWGQCTQVTVSS”, the “polyreactivity (PSR sort gate)” value was “high polyreactivity”. In the case of “QVQLVESGGGLVQAGGSLRLSCAASGRTIYYYAMGGYRQAPGKEREFVAAISWHGGSTYYADSVKGRFTISRDNAKNTVYLQMNSLKPEDTAVYYCAAERYDRVGFDYWGQGTQVTVSS”, the “polyreactivity (PSR sort gate)” value was “low polyreactivity”. With “QVQLVESGGGLVQAGGSLRLSCAASGSIFVPNDMGWYRQAPGKEREFVAAITESDGSTYNADSVKGRFTISRDNAKNTVYLQMNSLKPEDTAVYYCATDSTGVTIVHFDYWGQGTQVTVSS” the “polyreactivity (PSR sort gate)” value was “low polyreactivity”. In the case of “QDQLVDSGGGLVQAGASLRISSATSGRILWEYAMGSYRQAPGKERQLVAAITISDGSTYYADSVKGRFTISRDNAKNTVYLQMNSLNPEDTEVYYCAADSYDYTPAYLFSYKYYYWGQGTQVTVSS”, the “polyreactivity (PSR sort gate)” value was “low polyreactivity”. In the case of “QVQLVESGGGLVQAGGSLRLSCAASGITFGKNAMGWYRQAPGKESEFVAAISWGGGRTYYADSVKGRFTISRDNAKNTVYLQMNSLKPEDTAVYYCNVGPRAGWYRSNYDYWGQGTQVTVSS”, the “polyreactivity (PSR sort gate)” value was “low polyreactivity”. With “QVQLEESGGGLVQAGGIRRLSCAASGRIFPYYAMGWYRLAPGKERELVAAISLSGGSTYYADSVKGRFTISRDTAKMSGYLQMTSLKPEDTAVYYGNAVASTSGYYWYPGLGYDYCGQGTQVTVSS” the “polyreactivity (PSR sort gate)” value was “low polyreactivity”. In the case of “QVQLVESGGGLVQAGGSLRLSCAASGSTFGRYAMGWYRQAPGKERELVATIDGSDGSTFYADSVKGRFTISRDNAKNTVYLQMNSLKPEDTAVYYCAAAWYDGYYYLVYYWGQGTQVTVSS”, the “polyreactivity (PSR sort gate)” value was “low polyreactivity”. In the case of “QVQLVESGGGLVQEGGSLRLSCAASGSTFGGYAMGWYRQAPGKERELVAAISGSGVRTYYADSVKGRFTISRDNAKYSVYLQMNSLKPEDTAVYYCAKRVRYPGDRYYYWGQGSQVTVSS”, the “polyreactivity (PSR sort gate)” value was “high polyreactivity”. For “QVQLVESGGGLVQAGGSLRLSCADSGRTFWSNAMGWYRQAPGKERELVARIDSTYYADSVKGRFTISRDNAKNTVYLQMNSLKPEDTAVYYCNADTIYYAGDFRYDYWGQGTQVTVSS”, the “polyreactivity (PSR sort gate)” value was “low polyreactivity”. With “QVQHVESGGGLVQAGGSLRLSCAASGFTFTRYAMGWYRQAPGKERELVAAISRGGTTYADSVKGRFTISRDNAKNTVYLQMNSLKPEDTAVYYCNRLRYGYPQEFGYWGQGTQVTVSS” the “polyreactivity (PSR sort gate)” value was “high polyreactivity”. For “QVQLVESGGGLVQAGGSLRLSCAASGRTFVGNAMGWYRQAPGKERELVATITRRGGSTYYADSVKGRFTISRDNAKNTVYLQMNSLKPEDTAVYYCSAGSQPGRKYYYWGQGTQVTVSS”, the “polyreactivity (PSR sort gate)” value was “high polyreactivity”.
